B1: chicken ovalbumin (protein, UniProt P01012 2-386, looked up)
Ovalbumin: GSIGAASMEFCFDVFKELKVHHANENIFYCPIAIMSALAMVYLGAKDSTRTQINKVVRFDKLPGFGDSIEAQCGTSVNVHSSLRDILNQITKPNDVYSFSLASRLYAEERYPILPEYLQCVKELYRGGLEPINFQTAADQARELINSWVESQTNGIIRNVLQPSSVDSQTAMVLVNAIVFKGLWEKAFKDEDTQAMPFRVTEQESKPVQMMYQIGLFRVASMASEKMKILELPFASGTMSMLVLLPDEVSGLEQLESIINFEKLTEWTSSNVMEERKIKVYLPRMKMEEKYNLTSVLMAMGITDVFSSSANLSGISSAESLKISQAVHAAHAEINEAGREVVGSAEAGVDAASVSEEFRADHPFLFCIKHIATNAVLFFGRCVSP
modifications: FITC label in uptake test
notes: free model antigen chicken ovalbumin (OVA); FITC labeled in the uptake test

Tests used:
[1] = tested on: DC2.4 cells; experiment: Uptake of the microemulsion vaccine system by the DC2.4 cells (flow cytometer); format: cell-based; settings: 1.5 hours at 37° C.
Procedure: Uptake of the aluminum hydroxide microemulsion vaccine system by the DC2.4 cells: 1×10^6 DC2.4 cells are implanted in each well of a 12-well plate, put into an incubator for 4-6 hours, 5 μg of FITC labeled OVA or the aluminum hydroxide microemulsion entrapping the same amount of the FITC labeled OVA and prepared according to embodiment 6 are added into each well after cell anchorage. Supernatants are discarded after uptake for 1.5 hours at 37° C., cell surfaces are washed with PBS two times slightly, and then directly blown with the PBS, and the cells are centrifugally washed twice at 2000 rpm for 3 min, finally re-suspended by using 400 μl of PBS, and tested by a flow cytometer. […] In the figure, the Free OVA represents free FITC labeled OVA, and NE-OVA represents the aluminum hydroxide microemulsion entrapping the FITC labeled OVA.
Uptake of the ferric hydroxide microemulsion vaccine system by the DC2.4 cells: 1×10^6 DC2.4 cells are implanted in each well of a 12-well plate, and put into an incubator for 4-6 hours, and 2 μg of FITC labeled melanoma antigen peptide GP100 (ITDQVPFSV) or the ferric hydroxide microemulsion entrapping the same amount of the FITC labeled melanoma antigen peptide GP100 (ITDQVPFSV) prepared according to embodiment 9 is added into each well after cell anchorage. […]

[2] = tested on: mice; experiment: Cytotoxic T lymphocyte (CTL) test by CFSE staining method in immunized mice; format: in vivo; settings: 25 μl into paws of mice on Day 0, 7, 14; 5 μg OVA, 0.5 μg CpG; CTL on Day 21
Procedure: Cytotoxic T lymphocyte (CTL) test and immune antibody testing of the aluminum hydroxide microemulsion vaccine system: 25 μl of the aluminum hydroxide microemulsion entrapping OVA and prepared in embodiment 6, the aluminum hydroxide microemulsion entrapping OVA and CpG and prepared in embodiment 7, and free OVA or free OVA and CpG (including 5 μg of OVA and 0.5 μg of CpG) are injected into paws of immunized mice on Day 0, Day 7 and Day 14, and CTL response in the body is tested by a CFSE staining method on Day 21. […] In the figure, OVA represents free OVA, NE-OVA represents the aluminum hydroxide microemulsion entrapping OVA, OVA+CpG represents free OVA and CpG, and NE-OVA-CpG represents the aluminum hydroxide microemulsion entrapping OVA and CpG.

Molecule	uptake by the DC2.4 cells (in words) ([1]; 2 μg FITC labeled GP100 per well)	antigen-specific cellular immune response (CTL) [2]	uptake by the DC2.4 cells (in words) ([1]; 5 μg FITC labeled OVA per well)
melanoma antigen peptide GP100 (ITDQVPFSV) [Free-GP100, reference compound]	barely taken up	–	–
B1	–	cannot induce the antigen-specific cellular immune response	barely taken up

Source: US12539272B2, “Microemulsion-based vaccine delivery system, preparation method therefor and use thereof” (Sichuan University, priority 2020, dated 2026)
